Measurements: IntAct's records for PubMed 23624404

B1: DNA repair protein RAD51 (Saccharomyces cerevisiae), P25454 (parent)
chain: MSQVQEQHISESQLQYGNGSLMSTVPADLSQSVVDGNGNGSSEDIEATNGSGDGGGLQEQAEAQGEMEDEAYDEAALGSFVPIEKLQVNGITMADVKKLRESGLHTAEAVAYAPRKDLLEIKGISEAKADKLLNEAARLVPMGFVTAADFHMRRSELICLTTGSKNLDTLLGGGVETGSITELFGEFRTGKSQLCHTLAVTCQIPLDIGGGEGKCLYIDTEGTFRPVRLVSIAQRFGLDPDDALNNVAYARAYNADHQLRLLDAAAQMMSESRFSLIVVDSVMALYRTDFSGRGELSARQMHLAKFMRALQRLADQFGVAVVVTNQVVAQVDGGMAFNPDPKKPIGGNIMAHSSTTRLGFKKGKGCQRLCKVVDSPCLPEAECVFAIYEDGVGDPREEDE

Variants of: B1
Conditions: with smt3_yeast SMT3, Q12306
smt3_yeast SMT3, Q12306, sequence (Q12306 whole entry): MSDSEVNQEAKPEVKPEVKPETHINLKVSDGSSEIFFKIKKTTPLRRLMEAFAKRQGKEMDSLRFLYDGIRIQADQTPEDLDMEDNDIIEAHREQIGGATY

With V321A;V322A as the variant, how does the “effect of a mutation on the interaction” value read?
Its value is “disrupting interaction strength”.

Variants of: B1
Conditions: with rad52_yeast RAD52, P06778

How did the “effect of a mutation on the interaction” value turn out when V321A;V322A was run?
The value was “decreasing interaction strength”.
